The target in the series is T1, TCRα2.1 megaTAL (10.5 RVD) (synthetic).
T1 chain: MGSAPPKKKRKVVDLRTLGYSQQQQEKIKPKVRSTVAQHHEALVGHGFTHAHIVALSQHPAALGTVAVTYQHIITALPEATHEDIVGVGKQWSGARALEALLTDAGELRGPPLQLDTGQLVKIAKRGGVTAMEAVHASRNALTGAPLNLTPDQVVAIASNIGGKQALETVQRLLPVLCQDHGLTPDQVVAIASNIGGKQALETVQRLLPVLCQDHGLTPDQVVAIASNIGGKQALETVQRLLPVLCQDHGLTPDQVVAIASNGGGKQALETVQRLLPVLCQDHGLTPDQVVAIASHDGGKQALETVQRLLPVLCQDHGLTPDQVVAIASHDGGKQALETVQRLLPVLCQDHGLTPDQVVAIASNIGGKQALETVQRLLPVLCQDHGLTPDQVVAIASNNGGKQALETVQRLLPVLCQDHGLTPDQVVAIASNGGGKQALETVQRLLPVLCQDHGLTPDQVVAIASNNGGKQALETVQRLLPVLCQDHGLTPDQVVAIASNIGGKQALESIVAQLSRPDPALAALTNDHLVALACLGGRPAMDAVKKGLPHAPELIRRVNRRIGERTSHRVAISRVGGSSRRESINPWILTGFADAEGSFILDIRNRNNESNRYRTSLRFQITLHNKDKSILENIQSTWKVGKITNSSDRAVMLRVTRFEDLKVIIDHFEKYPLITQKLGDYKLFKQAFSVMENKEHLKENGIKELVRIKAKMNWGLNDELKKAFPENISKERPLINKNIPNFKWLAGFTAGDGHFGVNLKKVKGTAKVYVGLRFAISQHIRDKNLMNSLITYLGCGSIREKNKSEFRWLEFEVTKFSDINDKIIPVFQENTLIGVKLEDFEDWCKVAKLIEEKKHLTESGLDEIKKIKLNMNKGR
Description: cell_activity; primary human T cells, CD3 knockdown. To be noted: tags: TALE fusion. An excerpt:
A single amino acid substitution, E178D, that increased catalytic activity in another I-OnuI variant was inserted at the active site of the TCRα2.0 megaTAL to generate the TCRα2.1 megaTAL (SEQ ID NO: 8). In vitro transcribed mRNA encoding the TCRα2.1 megaTAL (e.g., SEQ ID NO: 15) was electroporated into primary human T cells. The TCRα2.1 megaTAL increased CD3 knockdown 10-fold compared to the TCRα2.0 megaTAL. FIG. 5.

Among the data in patent US11591582, “TCRα homing endonuclease variants” (2seventy bio, Inc.) are activity values, retold here.

B1: TCRα megaTAL target site (dsDNA)
DNA 1: AAATCCAGTGACAAGTCTGTCTGCCTATTCACCGATTTT
DNA 2: AAAATCGGTGAATAGGCAGACAGACTTGTCACTGGATTT
B1 came in with an activity of 10 fold vs TCRα2.0 megaTAL.
